Data reported in patent US20080021198.

Biological target: PP2A A-C hetero-dimer (bovine brain, unmethylated) (UniProt Q32PI5)
Sequence (Q32PI5 2-589, chain 1 of 2): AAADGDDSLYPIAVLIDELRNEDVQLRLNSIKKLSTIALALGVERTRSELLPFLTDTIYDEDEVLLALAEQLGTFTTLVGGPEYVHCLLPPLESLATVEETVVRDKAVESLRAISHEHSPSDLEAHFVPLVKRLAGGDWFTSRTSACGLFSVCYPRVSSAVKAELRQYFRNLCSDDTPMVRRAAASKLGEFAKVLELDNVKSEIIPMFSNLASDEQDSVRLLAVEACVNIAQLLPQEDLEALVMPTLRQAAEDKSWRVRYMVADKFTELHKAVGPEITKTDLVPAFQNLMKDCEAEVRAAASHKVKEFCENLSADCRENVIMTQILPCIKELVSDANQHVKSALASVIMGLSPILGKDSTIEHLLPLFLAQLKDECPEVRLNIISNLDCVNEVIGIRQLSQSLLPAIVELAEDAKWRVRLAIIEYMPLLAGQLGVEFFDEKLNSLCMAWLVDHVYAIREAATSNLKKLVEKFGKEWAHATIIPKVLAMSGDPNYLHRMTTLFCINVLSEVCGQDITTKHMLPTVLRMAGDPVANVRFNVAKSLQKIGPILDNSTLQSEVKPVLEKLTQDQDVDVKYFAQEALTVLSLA
Sequence (chain, as listed by the source, chain 2 of 2): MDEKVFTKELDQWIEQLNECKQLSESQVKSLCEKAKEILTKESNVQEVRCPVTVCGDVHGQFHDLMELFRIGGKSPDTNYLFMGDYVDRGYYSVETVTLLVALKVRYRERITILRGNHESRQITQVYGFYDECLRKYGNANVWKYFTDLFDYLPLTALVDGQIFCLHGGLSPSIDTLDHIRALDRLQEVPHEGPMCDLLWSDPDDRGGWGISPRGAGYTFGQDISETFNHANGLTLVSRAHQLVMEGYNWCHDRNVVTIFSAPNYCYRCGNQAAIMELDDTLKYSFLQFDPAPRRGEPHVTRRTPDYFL

Substance: PMTΔ19 (human PP2A methyl transferase with the N-terminal 19 residues truncated)
- enzyme activity (in vitro enzymatic assay, FIG. 7): Truncation of the N-terminal 19 amino acids did not appear to have any effect on the enzyme activity
